# Reference: patent publication US20050063973A1 (URIFER, published 2005)
# T1: TMF/ARA160 (endogenous protein of C2C12, NIH3T3 and T127 cells) (UniProt B9EKI3 1-1091)
# T1 construct: Endogenous protein, immunoprecipitated from whole cell extracts or stained in fixed cells; also called Gate-Keeper; GK
# T1 sequence (looked up): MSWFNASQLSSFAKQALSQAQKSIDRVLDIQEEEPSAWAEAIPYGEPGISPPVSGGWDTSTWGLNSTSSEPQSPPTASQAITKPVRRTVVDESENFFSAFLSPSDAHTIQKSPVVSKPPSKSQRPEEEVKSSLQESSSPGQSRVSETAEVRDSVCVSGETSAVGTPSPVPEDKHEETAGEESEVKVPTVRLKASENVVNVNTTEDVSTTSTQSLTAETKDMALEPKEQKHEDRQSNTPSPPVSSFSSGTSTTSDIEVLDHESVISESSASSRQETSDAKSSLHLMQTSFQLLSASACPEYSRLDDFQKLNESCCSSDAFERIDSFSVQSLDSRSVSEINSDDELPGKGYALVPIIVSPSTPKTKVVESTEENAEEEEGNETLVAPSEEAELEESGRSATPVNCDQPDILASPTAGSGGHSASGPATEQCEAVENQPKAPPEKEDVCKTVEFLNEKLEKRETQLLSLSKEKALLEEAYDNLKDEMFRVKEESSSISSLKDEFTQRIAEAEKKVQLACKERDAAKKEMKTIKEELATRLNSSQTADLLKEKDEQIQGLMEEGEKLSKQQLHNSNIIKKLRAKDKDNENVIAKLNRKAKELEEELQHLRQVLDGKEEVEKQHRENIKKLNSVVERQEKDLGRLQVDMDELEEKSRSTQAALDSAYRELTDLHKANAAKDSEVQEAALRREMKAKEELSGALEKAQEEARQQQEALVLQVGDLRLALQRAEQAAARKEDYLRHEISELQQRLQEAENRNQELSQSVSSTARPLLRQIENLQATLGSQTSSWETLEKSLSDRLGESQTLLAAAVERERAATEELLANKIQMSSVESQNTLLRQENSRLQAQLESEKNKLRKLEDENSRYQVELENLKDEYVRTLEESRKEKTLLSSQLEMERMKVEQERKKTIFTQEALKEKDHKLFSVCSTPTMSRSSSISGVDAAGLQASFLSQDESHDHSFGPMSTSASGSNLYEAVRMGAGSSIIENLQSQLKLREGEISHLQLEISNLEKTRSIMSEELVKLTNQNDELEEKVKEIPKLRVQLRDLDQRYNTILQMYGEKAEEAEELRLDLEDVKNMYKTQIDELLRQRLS
# Target: T1, TMF/ARA160 (endogenous protein of …)
# Test: co-immunoprecipitation with αTMF/ARA160 from C2C12 extracts, Western blot with αStat1
# Text: FIG. 6 is an immunoprecipitation showing that TMF/ARA160 associates with cyclin D1 and Stat3 but not with Stat1, in serum starved C2C12 cells. […] Whole cell extracts from actively growing (lanes 1 and 5) or serum-starved cells (lanes 2-4 and 6-8) which were either untreated (lanes 1-4) or treated with MG132 (lanes 5-8), were resolved by 7% SDS-PAGE and exposed to αStat3 (upper panel); αcyclin D1 (middle panel); or αStat1 antibodies (lower panel), in a Western-blot analysis. […] TMF/ARA160 was immunoprecipitated from the extracts described in A. Precipitates were resolved by 7% SDS-PAGE and were reacted with αStat3 (upper panel); αStat1 (middle panel); or αcyclin D1 antibodies (lower panel), in a Western-blot analysis.
binder,measurement,value
"Stat1 (endogenous protein of C2C12 cells) (other, UniProt P42225 2-749, looked up) SQWFELQQLDSKFLEQVHQLYDDSFPMEIRQYLAQWLEKQDWEHAAYDVSFATIRFHDLLSQLDDQYSRFSLENNFLLQHNIRKSKRNLQDNFQEDPVQMSMIIYNCLKEERKILENAQRFNQAQEGNIQNTVMLDKQKELDSKVRNVKDQVMCIEQEIKTLEELQDEYDFKCKTSQNREGEANGVAKSDQKQEQLLLHKMFLMLDNKRKEIIHKIRELLNSIELTQNTLINDELVEWKRRQQSACIGGPPNACLDQLQTWFTIVAETLQQIRQQLKKLEELEQKFTYEPDPITKNKQVLSDRTFLLFQQLIQSSFVVERQPCMPTHPQRPLVLKTGVQFTVKSRLLVKLQESNLLTKVKCHFDKDVNEKNTVKGFRKFNILGTHTKVMNMEESTNGSLAAELRHLQLKEQKNAGNRTNEGPLIVTEELHSLSFETQLCQPGLVIDLETTSLPVVVISNVSQLPSGWASILWYNMLVTEPRNLSFFLNPPCAWWSQLSEVLSWQFSSVTKRGLNADQLSMLGEKLLGPNAGPDGLIPWTRFCKENINDKNFSFWPWIDTILELIKNDLLCLWNDGCIMGFISKERERALLKDQQPGTFLLRFSESSREGAITFTWVERSQNGGEPDFHAVEPYTKKELSAVTFPDIIRNYKVMAAENIPENPLKYLYPNIDKDHAFGKYYSRPKEAPEPMELDDPKRTGYIKTELISVSEVHPSRLQTTDNLLPMSPEEFDEMSRIVGPEFDSMMSTV",binding result,no binding
